Patent US20120315277A1, “Compositions and Methods for the Therapy and Diagnosis of Influenza” (priority 2011, published 2012)

Biological target: M2 protein of influenza A/Puerto Rico/8/34 (H1N1) on cells (influenza A virus A/Puerto Rico/8/34 (H1N1)) (UniProt P06821)
Assay: FACS, MDCK cells infected with A/Puerto Rico/8/34

M2 protein of influenza A/Puerto Rico/8/34 (H1N1) on cells (influenza A virus A/Puerto Rico/8/34 (H1N1)), sequence (P06821 whole entry): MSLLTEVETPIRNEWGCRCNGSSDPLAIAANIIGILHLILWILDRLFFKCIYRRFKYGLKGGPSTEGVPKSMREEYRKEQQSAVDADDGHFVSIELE

With “14C2 (chimeric mouse V-region/human IgG1 kappa 14C2 antibody)” the EC50 (read off the curve) was 0.3 mg/L.
